Test results as given in the nanobody polyreactivity screen of Harvey et al. (2022).

test: yeast display, Sf9 membrane polyspecificity reagent, FACS + sequencing; frameworks hold sequencing errors
Procedure, shortened: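 Nanobodies from a synthetic yeast display library (Saccharomyces cerevisiae BJ5465), induced 36–48 hours with galactose, were stained 1 hour at 4 °C with 10% biotinylated, detergent-solubilized Sf9 membrane reagent, enriched on streptavidin microbeads, then FACS-sorted. Anti-HA (expression) and streptavidin (reagent binding) fluorescence set low and high (top ~1%) gates. Polyreactivity labels come from the gate of origin. Genes were colony-PCR amplified, MiSeq 2 × 250 sequenced and filtered by CDR length.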

Sequence	polyreactivity (PSR sort gate)
QLQLVESGGGLGQAGGRLRLSCAASGSTFGRYAKGCYIQAPGKERELVAAITSDTGNTNFADSVKGRLTISRDNAKNTVYLQMNSLKPEDTAVYYCAAATFWVLWGDVIGNYDSWGQGTQVTVSS	low polyreactivity
QVQLVESGGGLVQAGGSLRLSCAASGITFTVYAMGWYRQATRKERELVAAITSTGSTNYADSVKGLFTISRDNAKNTVYLQMNSLKPEDTAVYYCAADRQITVYAFDYWGQGTQVTVSS	low polyreactivity
QVQLVESGGGLVQAGGSLRLSCAAYGFIFIGYTMGWYRQAPGKERELVATISLGDDSTYYADSVKGRFTISRDNAKNTVYLQMNSLKPEDTAVYYCAADQIDGTTSAYDYWGQGTQVTVSS	low polyreactivity
QVQLVESGGGLVQAGGSLRLSCAASGSIFPKYAMGWYRQAPGKERELVAAITSSGGRTYYADSVKGRFSISRDNAKNTVYLQMNSLKPEDTAVYYCAARYRREAAYGFDYWGQGTQVTVSS	high polyreactivity
QVQLVESGGGLVQAGGSLRLSCAASGRISGYAMGWDRQAPGKERELVAAISTRGGTTYYADSVKGRFTISRDNAKNTVQLQMNSLKPEDTAVYYCNAASSRWPEYDYWGQGTQVTVSS	high polyreactivity
QVQLVESGGGLVQAGGSLRLSCAASGSIFENYAMGWYRQAPGKERELVAAITSSGASTYYADSVKGHFTISRDNEKNTVYIQMNILKPEDTAVYYCAADSAFYDEYQEDYWGQGTQVTVSS	low polyreactivity
QVQLVESGGGLVQAGGSLRLSCAASGYTSNMGWYRQAPGKERELVAAITSGGDGTYYADSVKGRFTISRDNAKNTVYLQMNSLKPEDTAVYYCAKRGRDYNYGRAGYYWGQGTQVTVSS	low polyreactivity
QVQLEESGGGLVQAGGRLRLSCAASGIISAHYAMGWYRQAPGKERELVAAISSSGGSTYYADSVKGRFTISRDNAKNTVYLQMNSLKPEDTAVYYCNAEFYWGYDYWGQGTQVTVSS	low polyreactivity
QVQLVESGGGLVQAGGSLRLSCAASGIIFIFYDMGWYRQAPGKERELVATITSGTNTYADSVKGRFTISRDNAKNTVYLQMNSLKPEDTAVYYCNAGAVHKKPARDYWGQGTQVTVSS	low polyreactivity
QVQLVESGGGLVQPGGSLRISCAASGFTFVYYVMGWYRQAPGKERELVAAINAGGGSTYYADSVKGRFTISRDNAKNTVYLQMNSLKPEDTAVYFCNARVRVRLGRNWSSYYYWGQGTEVTVSS	high polyreactivity
QVQLVESGGGLVHAGGSLRLSCAASGLIFYDNMGWYRQAPGKERELVAAISSSGGSTSYADSVKGRFTISRDNAKNTVYLQMNSLKPEDTAVYYCAAVSGPFVQTSGNGEYDYWGQGTQVTVSS	low polyreactivity
QVQLVESGGGLVQAGGSLRLSCAASGSIYSNAMGWYRQAPGKERELVAAISWRDGRTYYADSVKGRFTISRDNAKNTVYLQMNSLKPEDTAVYYCNADSRPLSTYYYWGQGTQVTVSS	low polyreactivity
QVQLEESGGGLVQAGGSLRLSCAASGRTFTPNAMGSSRQAPGKERELVASIRRGTSTYYADSVKGRFTISRDNAKITVYLQMNSLKPEDTAVYYCAARPFVPRVGTYSYYWGQGTQVTVSS	high polyreactivity
QVHLVESGGGLVQAGGSLRLSCAASGSIIGKYAMGWYRQAPGKERELVADITNSGGSTYYADSVKGRFTISRDNAKNTVYLQMNSLKPEDTAVYYCAADYLYPPYYEFYFWGQGTQVTVSS	low polyreactivity
QVQLVESGGGLVQAGGSLRLSCAASGFTFTTYVMGWYRQAPGKERELVAAISRRGTSTRYADSVKGRFTISRDNAKITVYLQMNSLKTEDTAVYFCAADRPYSIVPYDYWGQGTQVTVSS	high polyreactivity
QVQLQESGGGLVLAGGSLRLSCAESGYISWSFTMGWYRTAPGKERELVAGITYGGITYYADSVKGRFTISRDNAKNTVYLQMNSLKPEDTAVYYCNARKHGQGRNGYGSWGQGTQVTVSS	high polyreactivity
QVQLVESGGGLVQAGGSLRLSCAASGLIFAIYAMGWYRQAPGNERELVAAIRWSGASTYADSVKGRFTISRDNAKNTVYLQMNSLKPEDTAVYYCAADDLLDYDYWGQGTQVTVSS	low polyreactivity
QVQLVESGGGLVQAGGSLRLSCAASGSIFSYYAMGWYRQAPGKERELVAAISQSGGTTYYADSVKGRFTISRDNAKNTVYLQMNSLKPEDTAVYYCAARAPSSFDTQYYYWGQGTQVTVSS	low polyreactivity
QVQLVESGGGLVQAGGSLRLSCAASGRIFWGYDMGWYRQAPGKEREFVAAISSGGGRKYYADSVKGRFTISRDNAKNTVYLQMNSLKPEDTAVYYCNAELNWYYYIHLDYWGQGTQVTVSS	low polyreactivity
QVQLEESGGGLVQAGGSLRLSCAAAGINFTYYAMGWYRQAPGKERELVAAISYRGGSTYADSVKGRFTISRDNAKNTVYLPMNSLKPEDTAVYYFAADSPVPDSGEGYWGQGTQVTVSS	high polyreactivity
QVQLVESGVGLVQAGGSLRLSCAASGRIFNDNAMGWYSQAPGKERELVAAISTGGSTNYADSVKWRFTISRDNAKNTVYLQMNSLKPEDTEVYYCAADHPVTYETSKFDYWGQGTQVTVSS	low polyreactivity
QVQLVESGGGLVQAGGSLRLSCAASGRTFDWYAMGWYRPAPGKERELVAAISRSGGSTYYADSVKGRFTISLDNAKNTVYLQMNSLKPEDTAVYYCAKRYAPDSRYYYWGQGTQVTVSS	high polyreactivity

Sequence	polyreactivity (PSR sort gate)
QVQLVESGGGLVQAGGSLRLSCAASGRTFGLNAMGWYRQAPGKERELVAAITSGGSTYYADSVKGRFTITRDNAKTTVYLQMNSLKPEDTAVYYCAAAYFDFWGWLHDYWGQGTQVTVSS	low polyreactivity
QVQLVESGGGLVQAGGSLRLSCAASGITFSSNAMGWSRQAPGKERELVAAISSSGGRTYYADSVKVRFTISRDYAKNTVYLQMNSLKPEDTAVYYCAKTSRYYYYSRLYYWGQGTKVTVSS	high polyreactivity
QVQLVESGGGLVQAGGSLRLSCAASGRILDGYAMGWYRQAPGKERELVAAISSRGGRTYYADSVKGRFTISRDNAKNTVYLQMNSLKPEDTAVYYCAADFSKSRRPIRFYYWGQGTQVTVSS	high polyreactivity
QVQLVESGGRLVQAGGSLRLSCAASGFTFRRYAMGWYRQAPGKERELVAVITTAGSTNYADSVKGRFTISRDNAKNTVYLQMNTLKPEDTAVYYCATDNGTRKRRYDYWGQGTQVTVSS	low polyreactivity
QVQLVESGGGLVQAGGSLRLICADSGSIFVYYLMVWYRQAPGKEREFVAAISYGGGSTYYADSVKGRFTISRDNAKNTVYLQMNSLKPEDTAVYYCNTDIYSDYVCEEYEYWGQGTQVTLSS	high polyreactivity
QVQLVESGGGLVQAGGSLRLSCAASGSILYRNAMGWYRQAPGKERELVAGITRRGGSTYYADSVKGRFTISRDNAKNTVYLQMISLKPEDTAVYYCNVQRARRQRQYGYWGQGTQVTVSS	low polyreactivity
QVQLVESGGGLVQAGGSLRLSCAASGITFSRNTMGWYRQAPGKERELVAAISRSGASTYYADSVKGRFTISRDNAKNTVYLQMNSLKPEDTAVYYCAARFHYPGGPRYYYWGQGTQVTVSS	high polyreactivity
QVQLVESGGGLVQAGGSLRLSCAASGRIFYRYAMGWYRQAPGKERELVAAITYSGSSTYYADSVKGRFTISRDNAKNTVYLQMNSLKPEDTAVYYCAARFQSTNGHKYYYWGQGTQVTVSS	high polyreactivity
QDQLVESGGGLVQAGGSLSLSCAASGSIIPNYAMGWYRQAPGKERELVAAISSSGGRTYYADSVKGRFTISRDNAKNTVYLQMNCLKPEDTAVYYCAADTYTSAQHEKYDYWGQGTQVTVSS	low polyreactivity
QVQLVESGGGLVQAGGSLRLSCAASGFTFGTYAMGWYRQAPGKERELVASIRTDDSTYADSVKGRFTISRDNAKNTVYLQMNSLKPEDTAVYYCAVDGYVIYVYDTYDYWGQGTQVTVSS	low polyreactivity
QVQLVESGGGLVQAGGSLRLSCAASGFIFGTYAMGWYRQAPGKERELVAAISQSGGRTYYADSVKGRFTISRDNAKNTVYLQMISLKPEDTAVYYCAARHRPTGISTGYDYWGQGTQVTVSS	high polyreactivity
QVQLVESGGGLVQAGGSLRLICAASGNTFYYYAMGWYRQAPGKERELVASITSTARTYYADSVKGRFTISRDNAKNTGYLQMNSLKPEDTAVYYCNAKEHYATRSDSCGQGTQVTVSS	high polyreactivity
QVHLVESGGGLVQAGGSLRLSCAASGRISHYNAMGWNRQAPGKERELVAAISSRGGSTYYADSVKGRFTISRDNAKNTVYLQMNSLKPEDTAVYFCAVRYWHWGKKITYDYWGQGTQVTVSS	high polyreactivity
QVQLVESGGGLVQAGGSLSLSCAASGFIFLGNAMGWYRQAPGKEREVVAAISSGGSTYADSVKGRFTISRDHAKNTVYLQMNSLKPEDTAVYYCAVDRAFRAQNYHEYDYWGQGSQVTVSS	low polyreactivity
QVQLVESGGGLVQAGGSLRLSCAASGSTFTGNAMGWYRQAPGKERELVAAISRSGGSTFYADSVKGRFTISRDNAKNTVYLQINSLKPEDTAVYYCAAPVYLYGTVGRGDYWGQGTQVTVSS	high polyreactivity
QVQLVESGGGLVQAGGSLRLICAASGNIFTQYGMGWYRQAPGKERELVAAISRRGGSTYYADSVKGRFTISRDNAKNTVYLQMNSLKPEDTAVYYCARRTNRPPWGFEYWGQGTQVTVSS	high polyreactivity
QVQLVESGGGLVQAGGSLRLSCAASGSTFPSYTMGWYRLAPGKERELVAAITLSGGSTYYADSVKGRFTISRDKAKNTVSLQMNSQKPEDTAVYYCAAYSQRGYDYWGQGTQVTVSS	low polyreactivity
QVKLVESGGGLVQAGGSLRLSCAASGRTFRYNAMGWYRQEPGEERELVASITSGGSTNYADSVKGRFTISRDNAKNTVYLQMNRLKPEDTAVYYCAADERRPYWQHCIGSGRPFDYWGQGTQVTVSS	low polyreactivity
QVQLVESGGGLVQAGGSLRLSCAASGLTFYGYTMGWSRQAPGKERELVAAISWSGGNTYYADSVKGRFTISRDNEKNTVYLQMNSLKPEDTAVYYCAAEHWTYDWVDYWGQGTQVTVSS	low polyreactivity
QVQLVESGGGLVQAGGSLRLSCAASGSILDGNAMGWYIQAPGKERELVAAISWNGARTYYADSVKGRFTISRDNAKNTVYLQMNSLKPEDTAVFYCAARRGSGKFGKYRGVDYWGQVTQVTVSS	high polyreactivity
QVQLVESGGGLVQAGGSLRLSCAASGITFVVYTMGWYRQAPGKERELVASISISGDSTNYAESVKGRFTISRDNAKNTVYLQMNILKPEDTAVYYCNAAFYHVQFPWIAYEYWGQGTQVTVSP	low polyreactivity
